In patent publication US20260242478A1 (published 2026):
Where no end group is shown, it is not given here.

B1: Phage-1891 (peptide)
peptide: LEKWCIPAWMCEWS
modifications: cysteine pairing not given here; also: fused to phage pIII, sequence and linker not given here
notes: Peptide-180 library clone, tested as clonal phage supernatant; not shown: pIII of the bacteriophage to which the peptide is fused
B2: Phage-1875 (peptide)
peptide: FVPWCIPAWMCAEN
modifications: cysteine pairing not given here; also: displayed on phage as pIII fusion, pIII sequence and linker not given here
B3: Phage-1890 (peptide)
peptide: AIKWCIPSWMCVED
notes: tested as crude clonal phage supernatant; also called AIKWCIPSWMCVED
B4: Phage-1879 (peptide)
peptide: SLHWCIPAWMCDFV
notes: tested as crude clonal phage supernatant
B5: Phage-1877 (peptide)
peptide: IERWCIPDWMCHVW
notes: as for B4
B6: Phage-1892 (peptide)
peptide: VPKLCTPVWMCTGF
modifications: cysteine pairing not given here; also: fused to phage pIII, sequence and linker not given here
notes: as for B1
B7: Phage-1874 (peptide)
peptide: SPKWCTPEWMCSHL
B8: Phage-1871 (peptide)
peptide: HVKWCIPAWMCEAS
B9: Phage-1864 (peptide)
peptide: IMKWCIPEWMCYFF
B10: Phage-1863 (peptide)
peptide: DFRWCIPEWMCTGY
B11: Phage-1883 (peptide)
peptide: VNKLCTPEWMCVGM
notes: as for B4
B12: Phage-1873 (peptide)
peptide: VEHWCIPAWMCEWM
B13: Phage-1889 (peptide)
peptide: DVMWCKPSWMCDWL
notes: as for B4
B14: Phage-1870 (peptide)
peptide: EFIWCRPAWMCMDV
B15: Phage-1880 (peptide)
peptide: VLMLCKPAWMCMGF
notes: as for B4
B16: Phage-1869 (peptide)
peptide: SIKMCIPQWMCVMQ
B17: Phage-1878 (peptide)
peptide: VEILCKPKWMCEFW
notes: as for B4
B18: Phage-1865 (peptide)
peptide: EITRCIPAWMCDFW
B19: Phage-1885 (peptide)
peptide: FAKWCIPEWMCSVS
notes: as for B4
B20: Phage-1881 (peptide)
peptide: LEKWCTPAWMCEML
notes: as for B4
B21: Phage-1872 (peptide)
peptide: VMKWCIPEWMCQHT
B22: Phage-1888 (peptide)
peptide: WSNWCTPEWMCVGF
notes: as for B4
B23: Phage-1868 (peptide)
peptide: MEKLCKPAWMCSML
B24: Phage-1886 (peptide)
peptide: WEKWCIPAWMCVAD
notes: as for B4
B25: Phage-1887 (peptide)
peptide: LDHWCFPMWMCTGF
notes: as for B4
B26: Phage-1867 (peptide)
peptide: WENRCTPAWMCKGF
B27: Phage-1882 (peptide)
peptide: VTPWCTPSWMCFGF
notes: as for B4
B28: Phage-1876 (peptide)
peptide: VVKLCIPEWMCAEW
modifications: cysteine pairing not given here; also: displayed on phage as pIII fusion, pIII sequence and linker not given here
notes: as for B4
B29: Phage-1866 (peptide)
peptide: WEHWCRPAWMCESL
B30: Phage-1884 (peptide)
peptide: MVMRCQPEWMCTGI
notes: as for B4

What was measured:
[1] = biological target: T1, Anti-PSMA Fab (SEQ ID NOs: 19, 20); assay: phage binding ELISA on captured PSMA Fab; competitor PSMA antigen pre-incubated in the well
T1 construct: Biotinylated and captured on neutravidin coated plates in the phage ELISA; also called 006 PSMA Fab
Experimental: (§1) Clonal phage were harvested as crude supernatants and screened via standard ELISAs. […] Prior to the addition of clonal phage. wells were incubated with blocking buffer and PSMA antigen or blocking buffer alone. Without washing or aspirating, clonal phage supernatants were then added to the wells and incubated for a short time. Wells were then washed followed by detection of bound phage using a horse radish conjugated anti-M13 antibody.

[2] = biological target: T1, Anti-PSMA Fab (SEQ ID NOs: 19, 20); assay: phage binding ELISA; biotinylated PSMA Fab on neutravidin plate, bound phage detected with anti-M13 HRP
Experimental: as §1

[3] = biological target: T2, Anti-PSMA Fab (SEQ ID NOs: 19, 20); assay: phage binding ELISA on captured anti-PSMA Fab; competitor: PSMA antigen pre-incubated in the wells
T2 construct: Biotinylated PSMA Fab captured on neutravidin coated plates in the phage ELISA; also called 006 PSMA Fab
Experimental: as §1

[4] = biological target: T2, Anti-PSMA Fab (SEQ ID NOs: 19, 20); assay: phage binding ELISA; biotinylated anti-PSMA Fab on neutravidin plate, bound phage detected with anti-M13-HRP
Experimental: as §1

[5] = biological target: T3, Anti-PSMA Fab (SEQ ID NOs: 19, 20); assay: phage binding ELISA; biotinylated PSMA Fab on neutravidin plate, clonal phage supernatant, anti-M13 HRP detection;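 also: wells were preincubated with blocking buffer either containing PSMA antigen or without it before crude phage supernatant was added, briefly incubated, then washed prior to detection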
T3 construct: In the panning ELISA the Fab was biotinylated and captured on neutravidin coated plates; also called 006 PSMA Fab
Experimental: as §1

[6] = biological target: T3, Anti-PSMA Fab (SEQ ID NOs: 19, 20); assay: phage binding ELISA; biotinylated PSMA Fab on neutravidin plate pre-incubated with PSMA antigen (competitor), anti-M13 HRP detection;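 also: competition ELISA where clonal phage supernatants were added to wells preincubated with PSMA antigen or with blocking buffer only as control, bound phage read via HRP-coupled anti-M13 antibody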
Experimental: as §1

| Binder | Anti-PSMA Fab signal in the presence of PSMA [3] | Anti-PSMA Fab (SEQ ID NOs: 19, 20) signal [4] | Anti-PSMA Fab (SEQ ID NOs: 19, 20) signal [5] | Anti-PSMA Fab signal in the presence of PSMA [6] | further results |
| --- | --- | --- | --- | --- | --- |
| B1 | – | – | – | – | Anti-PSMA Fab signal in the presence of PSMA [1]: 0.113; Anti-PSMA Fab (SEQ ID NOs: 19, 20) signal [2]: 2.04 |
| B2 | 0.111 | 2.08 | – | – | – |
| B3 | – | – | 2.04 | 0.0876 | – |
| B4 | – | – | 2.07 | 0.185 | – |
| B5 | – | – | 2.08 | 0.126 | – |
| B6 | – | – | – | – | Anti-PSMA Fab signal in the presence of PSMA [1]: 0.0783; Anti-PSMA Fab (SEQ ID NOs: 19, 20) signal [2]: 2.04 |
| B7 | 0.127 | 2.09 | – | – | – |
| B8 | 0.0972 | 2.1 | – | – | – |
| B9 | 0.1 | 2.14 | – | – | – |
| B10 | 0.11 | 2.14 | – | – | – |
| B11 | – | – | 2.06 | 0.0609 | – |
| B12 | 0.12 | 2.09 | – | – | – |
| B13 | – | – | 2.04 | 0.127 | – |
| B14 | 0.0681 | 2.11 | – | – | – |
| B15 | – | – | 2.07 | 0.375 | – |
| B16 | 0.179 | 2.11 | – | – | – |
| B17 | – | – | 2.07 | 0.109 | – |
| B18 | 0.081 | 2.13 | – | – | – |
| B19 | – | – | 2.06 | 0.119 | – |
| B20 | – | – | 2.06 | 0.0814 | – |
| B21 | 0.199 | 2.09 | – | – | – |
| B22 | – | – | 2.05 | 0.0814 | – |
| B23 | 0.0627 | 2.11 | – | – | – |
| B24 | – | – | 2.05 | 0.134 | – |
| B25 | – | – | 2.05 | 0.233 | – |
| B26 | 0.0837 | 2.12 | – | – | – |
| B27 | – | – | 2.06 | 0.072 | – |
| B28 | – | – | 2.08 | 0.115 | – |
| B29 | 0.134 | 2.12 | – | – | – |
| B30 | – | – | 2.06 | 0.122 | – |
